Test results: patent US6558918

Columns and labels:
[1] = biological target: wild-type Cdc2/cyclin B1 complex (UniProt P06493)
[2] = biological target: Cdc2-F15/CyclinB1 complex (UniProt P06493)
[3] = biological target: Cdc2-AF/CyclinB1 complex (UniProt P06493)
[4] = biological target: kinase-deficient Cdc2 mutant (K-) complexed with cyclin B1 (UniProt P06493)
Chain of kinase-deficient Cdc2 mutant (K-) complexed with cyclin B1 (P06493 whole entry, looked up, change not shown, one chain of several): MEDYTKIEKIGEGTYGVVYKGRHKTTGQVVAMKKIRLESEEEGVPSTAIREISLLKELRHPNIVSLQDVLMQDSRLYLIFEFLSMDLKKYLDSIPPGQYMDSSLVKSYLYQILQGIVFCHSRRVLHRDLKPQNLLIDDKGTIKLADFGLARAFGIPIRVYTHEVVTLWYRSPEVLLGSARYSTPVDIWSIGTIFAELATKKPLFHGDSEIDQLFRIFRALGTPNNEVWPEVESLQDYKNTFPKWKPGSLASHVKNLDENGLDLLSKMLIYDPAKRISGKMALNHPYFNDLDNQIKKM

Chain of full-length human Wee1 with N-terminal Glu-Glu tag, expressed in Sf9 cells (chain, as listed by the source): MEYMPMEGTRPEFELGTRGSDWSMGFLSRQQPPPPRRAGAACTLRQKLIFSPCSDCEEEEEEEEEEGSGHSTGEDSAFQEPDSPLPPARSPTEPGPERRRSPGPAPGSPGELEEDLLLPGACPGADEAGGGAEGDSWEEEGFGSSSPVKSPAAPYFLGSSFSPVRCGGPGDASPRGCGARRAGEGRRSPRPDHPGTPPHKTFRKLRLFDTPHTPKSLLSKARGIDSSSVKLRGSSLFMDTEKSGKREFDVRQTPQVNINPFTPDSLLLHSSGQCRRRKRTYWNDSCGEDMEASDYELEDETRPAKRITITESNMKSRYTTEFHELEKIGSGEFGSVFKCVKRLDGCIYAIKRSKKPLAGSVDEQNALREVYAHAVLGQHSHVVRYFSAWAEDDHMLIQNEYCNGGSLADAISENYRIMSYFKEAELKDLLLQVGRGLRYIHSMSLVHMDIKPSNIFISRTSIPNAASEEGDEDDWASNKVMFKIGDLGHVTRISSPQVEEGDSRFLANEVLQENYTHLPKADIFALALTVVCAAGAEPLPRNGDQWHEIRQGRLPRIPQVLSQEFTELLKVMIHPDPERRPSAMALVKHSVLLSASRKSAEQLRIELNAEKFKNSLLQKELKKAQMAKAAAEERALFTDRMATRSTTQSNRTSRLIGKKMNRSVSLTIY
Chain of wild-type Cdc2/cyclin B1 complex (P06493 whole entry, looked up, one chain of several): as the sequence (P06493 whole entry, looked up, change not shown, one chain of several) above
Chain of Cdc2-F15/CyclinB1 complex (P06493 whole entry, looked up, one chain of several): as the sequence (P06493 whole entry, looked up, change not shown, one chain of several) above
Chain of Cdc2-AF/CyclinB1 complex (P06493 whole entry, looked up, one chain of several): as the sequence (P06493 whole entry, looked up, change not shown, one chain of several) above

full-length human Wee1 with N-terminal Glu-Glu tag, expressed in Sf9 cells
histone H1 kinase activity of Cdc2/CyclinB1 in mixed Sf9 lysates [1]: the addition of Wee1 lysates effectively inhibited Cdc2/CyclinB1 kinase activation
histone H1 kinase activity in mixed Sf9 lysates [2]: Cdc2-F15/CyclinB1 and Cdc2-AF/CylinB1 complexes retained full activity in the presence of Wee1 lysates
histone H1 kinase activity in mixed Sf9 lysates [3]: Cdc2-F15/CyclinB1 and Cdc2-AF/CylinB1 complexes retained full activity in the presence of Wee1 lysates
phosphoamino acid analysis of 32P-labeled Cdc2 [4]: the Tyrosine 15 residue was readily phosphorylated by full-length Wee1
